Here are results for 12 molecules from patent publication US20060058231A1 (Xencor, published 2006).

For assay [1], the target named is T1, anti-BMP-7 antibodies of the commercial ELISA (R&D Systems ELISA Duoset Cat#DY354).
T1 construct: also called antibody; ELISA antibody
The assay can be described thus: sandwich ELISA (R&D Systems BMP7 ELISA Cat#DY354), BMP-7 protein titrated, % ELISA signal; the EC50 column carries no unit, the concentration axis is in ug/mL.

For assay [2], the target named is T2, BMPRII Fc fusion (R&D Systems) (UniProt Q13873 27-151, limits assumed).
T2 construct: Bought receptor/Fc fusion; not shown: Fc part of the bought fusion
T2 sequence (looked up): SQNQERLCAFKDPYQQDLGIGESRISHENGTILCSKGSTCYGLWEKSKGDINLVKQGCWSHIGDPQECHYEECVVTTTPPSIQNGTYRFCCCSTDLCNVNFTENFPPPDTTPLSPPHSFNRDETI
The assay is described as follows: AlphaScreen competition against biotinylated Y65N/S120D BMP-7. The protocol:
(§1) The Y65N/S120D variant of BMP-7 was also biotinylated for use in AlphaScreen assays using NHS-biotin. Bioactivity of the biotinylated protein was confirmed. AlphaScreen assays were performed to determine the binding affinity of selected BMP-7 variants for Fc fusions of the receptors BMPRIa, BMPRIb, ActRIIa, and BMPRII and the inhibitor noggin (R&D Systems). AlphaScreen assays were also performed to determine the affinity of selected variants for an anti-BMP-7 monoclonal antibody (R&D Systems mAb 3541). In all cases, 12-point binding curves were obtained in triplicate. Each data point corresponds to the luminescence produced from a solution comprising 10 uL of serially diluted BMP-7 variant, 10 uL receptor, inhibitor, or antibody, 10 uL biotinylated BMP-7, 10 uL AlphaScreen™ acceptor beads, and 10 uL AlphaScreen™ donor beads. Prism was used to calculate EC50 values for selected experiments.

Assay [3] has as its target T3, ActRIIa Fc fusion (R&D Systems) (UniProt P27037 20-134, limits assumed).
T3 construct: Bought receptor/Fc fusion; not shown: Fc part of the bought fusion
The description is as above. The protocol:
as §1

Assay [4] deals with T4, BMPRIb Fc fusion (R&D Systems) (UniProt O00238 14-126).
T4 construct: Bought receptor/Fc fusion; also called ALK-6; not shown: Fc part of the bought fusion
T4 sequence (looked up): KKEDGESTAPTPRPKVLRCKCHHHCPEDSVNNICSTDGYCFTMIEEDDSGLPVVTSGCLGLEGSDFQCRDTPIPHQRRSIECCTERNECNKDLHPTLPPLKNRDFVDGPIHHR
Described as above. The protocol:
as §1

Assay [5] concerns the target T5, noggin Fc fusion (R&D Systems) (UniProt Q13253 28-232, limits assumed).
T5 construct: Bought noggin/Fc fusion; not shown: Fc part of the bought fusion
T5 sequence (looked up): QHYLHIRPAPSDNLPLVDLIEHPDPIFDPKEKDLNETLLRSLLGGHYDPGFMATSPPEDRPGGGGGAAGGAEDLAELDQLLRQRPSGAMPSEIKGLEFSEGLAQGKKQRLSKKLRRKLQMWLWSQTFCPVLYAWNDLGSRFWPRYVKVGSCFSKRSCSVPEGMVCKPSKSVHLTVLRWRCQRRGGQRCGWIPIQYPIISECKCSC
Described as above. As to the method:
as §1

For assay [6], the target named is T6, BMPRIa receptor-Fc fusion (UniProt P36894 24-152, limits assumed).
T6 construct: BMP receptor-Fc fusion; also called ALK-3
The assay is described as follows: ELISA-like, fixed volume of conditioned media, receptor-Fc.

Assay [7] deals with T7, BMPRIb receptor-Fc fusion (UniProt O00238 14-126).
T7 construct: BMP receptor-Fc fusion, detected with anti-human IgG-HRP; also called ALK-6
T7 sequence (looked up): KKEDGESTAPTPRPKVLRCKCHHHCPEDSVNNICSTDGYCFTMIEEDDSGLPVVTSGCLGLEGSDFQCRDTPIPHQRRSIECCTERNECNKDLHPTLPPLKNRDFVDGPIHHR
The assay is described as above.

For assay [8], the target named is T8, BMPRII receptor-Fc fusion (UniProt Q13873 27-151, limits assumed).
T8 construct: BMP receptor-Fc fusion, detected with anti-human IgG-HRP
T8 sequence (looked up): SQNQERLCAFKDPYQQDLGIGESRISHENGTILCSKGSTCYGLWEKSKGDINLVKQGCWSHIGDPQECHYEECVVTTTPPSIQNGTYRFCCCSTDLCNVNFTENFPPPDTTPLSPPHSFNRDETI
Described as above.

The target of assay [9] is T9, ActRIIa receptor-Fc fusion (UniProt P27037 20-134, limits assumed).
T9 construct: BMP receptor-Fc fusion, detected with anti-human IgG-HRP
The assay is described as above.

The target in assay [10] is T2, BMPRII Fc fusion (R&D Systems). The assay is described as follows: AlphaScreen competition; EC50 relative to wild type BMP-7 (R&D Systems). The protocol: as §1
The target of assay [11] is T3, ActRIIa Fc fusion (R&D Systems). The description is as above. The protocol: as §1
For assay [12], the target named is T4, BMPRIb Fc fusion (R&D Systems). Described as above. As to the method:
as §1

Assay [13] has as its target T5, noggin Fc fusion (R&D Systems). The description is as above. The protocol: as §1

T9 sequence (P27037 20-134 limits assumed): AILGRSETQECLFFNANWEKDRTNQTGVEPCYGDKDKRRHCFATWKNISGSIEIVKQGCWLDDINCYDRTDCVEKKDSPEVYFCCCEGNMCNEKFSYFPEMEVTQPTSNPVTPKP
T3 sequence (P27037 20-134 limits assumed): as above
T6 sequence (P36894 24-152 limits assumed): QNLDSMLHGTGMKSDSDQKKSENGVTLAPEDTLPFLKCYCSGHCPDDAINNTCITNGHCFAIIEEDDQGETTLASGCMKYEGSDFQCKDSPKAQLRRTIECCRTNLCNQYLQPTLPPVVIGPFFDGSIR

B1: BMP-7 variant 504 (Y65N/S120D) (ligand)
chain: STGGKQRSQNRSKTPKNQEALRMASVAENSSSDQRQACKKHELYVSFRDLGWQDWIIAPEGYAANYCEGECAFPLNSYMNATNHAIVQTLVHFINPETVPKPCCAPTQLNAISVLYFDDDSNVILKKYRNMVVRACGCH
notes: Purified, unlabeled variant; also called v504
In turn, B1 showed an EC50 in [1] of 0.00821 µg/mL.

B2: recombinant human BMP-7 (R&D Systems) (ligand)
chain: STGGKQRSQNRSKTPKNQEALRMASVAENSSSDQRQACKKHELYVSFRDLGWQDWIIAPEGYAAYYCEGECAFPLNSYMNATNHAIVQTLVHFINPETVPKPCCAPTQLNAISVLYFDDSSNVILKKYRNMVVRACGCH
notes: Bought protein; also called wild type human BMP-7 (R&D Systems); wt
B2 displayed an EC50 in assay [1] of 0.00112 µg/mL.

B3: wild type human BMP-7 (R&D Systems) (ligand)
chain: STGGKQRSQNRSKTPKNQEALRMASVAENSSSDQRQACKKHELYVSFRDLGWQDWIIAPEGYAAYYCEGECAFPLNSYMNATNHAIVQTLVHFINPETVPKPCCAPTQLNAISVLYFDDSSNVILKKYRNMVVRACGCH
notes: Bought recombinant protein; It describes BMPs as dimers; also called wt; recombinant human BMP-7
In the case of B3, the EC50 in [2] came out at 0.23 µg/mL; in assay [3] it was 0.107 µg/mL; in assay [4], 0.0499 µg/mL; in assay [5] it was 2.85 µg/mL.

B4: BMP-7 variant S77T (ligand)
chain: STGGKQRSQNRSKTPKNQEALRMASVAENSSSDQRQACKKHELYVSFRDLGWQDWIIAPEGYAAYYCEGECAFPLNTYMNATNHAIVQTLVHFINPETVPKPCCAPTQLNAISVLYFDDSSNVILKKYRNMVVRACGCH
On to B4, for which the “BMPRIa binding relative to wild type” value in [6] is 0.94 relative to wt = 1.0. For the same molecule, the “BMPRIb binding relative to wild type” value in [7] was 0.9 relative to wt = 1.0. In addition, the “BMPRII binding relative to wild type” value in assay [8] is 0.93 relative to wt = 1.0. Also, the “ActRIIa binding relative to wild type” value in assay [9] was 0.99 relative to wt = 1.0.

B5: BMP-7 variant 526 (K39S/S120D/R134E) (ligand)
chain: STGGKQRSQNRSKTPKNQEALRMASVAENSSSDQRQACSKHELYVSFRDLGWQDWIIAPEGYAAYYCEGECAFPLNSYMNATNHAIVQTLVHFINPETVPKPCCAPTQLNAISVLYFDDDSNVILKKYRNMVVEACGCH
notes: Expressed from the full-length Image clone and processed to the mature dimer; Purified from conditioned media on SP-sepharose; also called v526
In the case of B5, the EC50 in [2] came to 0.139 µg/mL; in assay [3], 0.0445 µg/mL; in assay [4], 0.0363 µg/mL; in assay [5], 16.7 µg/mL. Also, the “Fold change vs. wt” value was 0.607 fold in [10], 0.416 fold in assay [11], 0.727 fold in [12] and 5.83 fold in assay [13].

B6: BMP-7 variant R134S (ligand)
chain: STGGKQRSQNRSKTPKNQEALRMASVAENSSSDQRQACKKHELYVSFRDLGWQDWIIAPEGYAAYYCEGECAFPLNSYMNATNHAIVQTLVHFINPETVPKPCCAPTQLNAISVLYFDDSSNVILKKYRNMVVSACGCH
On to B6, for which, in [6], the “BMPRIa binding relative to wild type” value is 1.1 relative to wt = 1.0. Also, the “BMPRIb binding relative to wild type” value in assay [7] was 1.15 relative to wt = 1.0. The “BMPRII binding relative to wild type” value in assay [8] was 1.07 relative to wt = 1.0. For the same molecule, the “ActRIIa binding relative to wild type” value in assay [9] was 1.17 relative to wt = 1.0.

B7: BMP-7 variant 565 (Y65N/F93T/R129D) (ligand)
chain: STGGKQRSQNRSKTPKNQEALRMASVAENSSSDQRQACKKHELYVSFRDLGWQDWIIAPEGYAANYCEGECAFPLNSYMNATNHAIVQTLVHTINPETVPKPCCAPTQLNAISVLYFDDSSNVILKKYDNMVVRACGCH
notes: Purified variant; also called v565
On to B7, for which the response in [1] was half-maximal at 0.00688 µg/mL (EC50).

B8: BMP-7 variant 526 (K39S/S120D/R134E) (ligand)
chain: STGGKQRSQNRSKTPKNQEALRMASVAENSSSDQRQACSKHELYVSFRDLGWQDWIIAPEGYAAYYCEGECAFPLNSYMNATNHAIVQTLVHFINPETVPKPCCAPTQLNAISVLYFDDDSNVILKKYRNMVVEACGCH
notes: Purified variant; also called v526
With B8, the EC50 in assay [1] is 0.00119 µg/mL.

B9: BMP-7 variant S77P (ligand)
chain: STGGKQRSQNRSKTPKNQEALRMASVAENSSSDQRQACKKHELYVSFRDLGWQDWIIAPEGYAAYYCEGECAFPLNPYMNATNHAIVQTLVHFINPETVPKPCCAPTQLNAISVLYFDDSSNVILKKYRNMVVRACGCH
Take B9: the “BMPRIa binding relative to wild type” value in [6] was 0.68 relative to wt = 1.0. For the same molecule, in assay [7], the “BMPRIb binding relative to wild type” value was 0.95 relative to wt = 1.0. Besides, the “BMPRII binding relative to wild type” value in [8] is 0.85 relative to wt = 1.0. In addition, the “ActRIIa binding relative to wild type” value in [9] is 0.92 relative to wt = 1.0.

B10: BMP-7 variant 504 (Y65N/S120D) (ligand)
chain: STGGKQRSQNRSKTPKNQEALRMASVAENSSSDQRQACKKHELYVSFRDLGWQDWIIAPEGYAANYCEGECAFPLNSYMNATNHAIVQTLVHFINPETVPKPCCAPTQLNAISVLYFDDDSNVILKKYRNMVVRACGCH
notes: Expressed from the full-length Image clone and processed to the mature dimer; Purified from conditioned media on SP-sepharose; also called v504
Regarding B10, the EC50 in assay [2] was 0.222 µg/mL; in assay [3], 0.0475 µg/mL; in assay [4], 0.0185 µg/mL; in assay [5], 3.4 µg/mL. Moreover, the “Fold change vs. wt” value in [10] is 0.969 fold; in assay [11], 0.445 fold; in [12] it was 0.371 fold; in [13] it was 1.19 fold.

B11: BMP-7 variant R134P (ligand)
chain: STGGKQRSQNRSKTPKNQEALRMASVAENSSSDQRQACKKHELYVSFRDLGWQDWIIAPEGYAAYYCEGECAFPLNSYMNATNHAIVQTLVHFINPETVPKPCCAPTQLNAISVLYFDDSSNVILKKYRNMVVPACGCH
Turning to B11, the “BMPRIa binding relative to wild type” value in assay [6] was 0.54 relative to wt = 1.0. Further, the “BMPRIb binding relative to wild type” value in assay [7] is 0.6 relative to wt = 1.0. In addition, the “BMPRII binding relative to wild type” value in [8] is 0.5 relative to wt = 1.0. The “ActRIIa binding relative to wild type” value in assay [9] is 0.89 relative to wt = 1.0.

B12: BMP-7 variant 565 (Y65N/F93T/R129D) (ligand)
chain: STGGKQRSQNRSKTPKNQEALRMASVAENSSSDQRQACKKHELYVSFRDLGWQDWIIAPEGYAANYCEGECAFPLNSYMNATNHAIVQTLVHTINPETVPKPCCAPTQLNAISVLYFDDSSNVILKKYDNMVVRACGCH
notes: Expressed from the full-length Image clone and processed to the mature dimer; Purified from conditioned media on SP-sepharose; also called v565
Turning to B12, the EC50 came to 0.409 µg/mL in assay [2], 0.0424 µg/mL in assay [3], 0.0224 µg/mL in assay [4] and 0.392 µg/mL in assay [5]. Moreover, the “Fold change vs. wt” value was determined as 1.78 fold in assay [10], 0.397 fold in assay [11], 0.448 fold in [12] and 0.137 fold in assay [13].
